Laboratory results reported in patent US20070202098A1.

target: FcγRIIIa on human PBMC effector cells (heterozygous V158/F158 or allotype not stated) (human) (UniProt P08637); assay: cell-based or functional assay
Sequence (P08637 17-254): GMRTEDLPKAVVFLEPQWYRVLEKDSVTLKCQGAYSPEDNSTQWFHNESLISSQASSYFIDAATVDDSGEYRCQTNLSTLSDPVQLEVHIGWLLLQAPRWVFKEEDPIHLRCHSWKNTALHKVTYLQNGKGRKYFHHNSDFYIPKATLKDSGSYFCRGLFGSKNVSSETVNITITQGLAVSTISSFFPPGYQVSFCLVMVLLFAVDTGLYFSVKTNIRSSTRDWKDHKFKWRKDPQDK

ADCC EC50, DoHH-2 targets, human PBMCs | ADCC Fold Improvement Over WT | ADCC log(EC50), DoHH-2 targets, human PBMCs | Substance
4 ng/mL | 2.5 fold | 0.6 log(ng/ml) | alemtuzumab Fc variant 30 V264I/I332E (antibody)
3 ng/mL | 3.3 fold | 0.49 log(ng/ml) | alemtuzumab Fc variant 90 S239D/I332E (antibody)

target: extracellular region of human F158 FcγRIIIa, GST-tagged (human) (UniProt P08637); assay: AlphaScreen competition
Sequence (P08637 17-208): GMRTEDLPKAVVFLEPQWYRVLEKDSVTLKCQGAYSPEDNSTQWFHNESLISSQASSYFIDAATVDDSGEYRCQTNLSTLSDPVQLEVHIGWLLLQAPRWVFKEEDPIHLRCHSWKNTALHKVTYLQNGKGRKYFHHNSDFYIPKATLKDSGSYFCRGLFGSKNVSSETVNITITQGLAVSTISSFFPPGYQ

Fold (IC50, over WT) | IC50 | Substance
15.6 fold | 1.1 nM | alemtuzumab Fc variant 30 V264I/I332E (antibody)

target: extracellular region of human V158 FcγRIIIa fused with glutathione S-Transferase (GST) (human) (UniProt P08637); assay: AlphaScreen competition
Sequence (P08637 17-208 F176V): as the sequence (P08637 17-208) above, with F160V counted along it

Substance | FcγRIIIa Fold | Fold (IC50, over WT) | IC50
alemtuzumab Fc variant 90 S239D/I332E (antibody) | 56.1 fold |  | 
trastuzumab Fc variant 219 S239D/I332E/A330I (antibody) | 59.1 fold |  | 
trastuzumab Fc variant 222 E233D (antibody) | 0.85 fold |  | 
trastuzumab Fc variant 223 P230A/E233D (antibody) | 0.92 fold |  | 
trastuzumab Fc variant 224 P230A/E233D/I332E (antibody) | 1.87 fold |  | 
trastuzumab Fc variant 239 V273I (antibody) | 0.79 fold |  | 
trastuzumab Fc variant 240 K274T (antibody) | 1.41 fold |  | 
trastuzumab Fc variant 241 K274E (antibody) | 6.11 fold |  | 
trastuzumab Fc variant 243 K274L (antibody) | 1.09 fold |  | 
trastuzumab Fc variant 245 F275W (antibody) | 1.11 fold |  | 
trastuzumab Fc variant 247 N276E (antibody) | 0.87 fold |  | 
trastuzumab Fc variant 248 N276R (antibody) | 0.66 fold |  | 
trastuzumab Fc variant 251 Y278T (antibody) | 1.87 fold |  | 
trastuzumab Fc variant 252 Y278E (antibody) | 0.9 fold |  | 
trastuzumab Fc variant 254 Y278W (antibody) | 0.41 fold |  | 
trastuzumab Fc variant 255 E283R (antibody) | 0.67 fold |  | 
trastuzumab Fc variant 256 V302I (antibody) | 1.01 fold |  | 
trastuzumab Fc variant 257 E318R (antibody) | 1.06 fold |  | 
trastuzumab Fc variant 263 V323I (antibody) | 0.83 fold |  | 
trastuzumab Fc variant 268 S324V (antibody) | 1.17 fold |  | 
trastuzumab Fc variant 270 S324Y (antibody) | 0.98 fold |  | 
trastuzumab Fc variant 272 K326I (antibody) | 1.43 fold |  | 
trastuzumab Fc variant 282 E333H (antibody) | 0.75 fold |  | 
trastuzumab Fc variant 288 T335D (antibody) | 2.79 fold |  | 
trastuzumab Fc variant 289 T335R (antibody) | 2.58 fold |  | 
trastuzumab Fc variant 291 L234I/L235D (antibody) | 0.07 fold |  | 
trastuzumab Fc variant 292 V240I/V266I (antibody) | 1.72 fold |  | 
trastuzumab Fc variant 293 S239D/A330Y/I332E/L234I (antibody) | 22.4 fold |  | 
trastuzumab Fc variant 296 S239D/A330Y/I332E/V264T (antibody) | 17.7 fold |  | 
trastuzumab Fc variant 298 S239D/A330Y/I332E/K326E (antibody) | 64.1 fold |  | 

Other lines, results leading:

FcγRIIIa Fold | Fold (IC50, over WT) | IC50 | Substance
12.5 fold | 12.8 fold | 0.5 nM | alemtuzumab Fc variant 30 V264I/I332E (antibody)
1.09 fold |  |  | trastuzumab Fc variant 221 P230A (antibody)
8.7 fold |  |  | trastuzumab Fc variant 238 E272Y (antibody)
1.41 fold |  |  | trastuzumab Fc variant 242 K274R (antibody)
1.06 fold |  |  | trastuzumab Fc variant 244 K274Y (antibody)
0.41 fold |  |  | trastuzumab Fc variant 246 N276S (antibody)
0.56 fold |  |  | trastuzumab Fc variant 250 N276Y (antibody)
0.71 fold |  |  | trastuzumab Fc variant 266 S324R (antibody)
1.15 fold |  |  | trastuzumab Fc variant 267 S324I (antibody)
1.88 fold |  |  | trastuzumab Fc variant 273 K326T (antibody)
0.78 fold |  |  | trastuzumab Fc variant 281 E333T (antibody)
1.56 fold |  |  | trastuzumab Fc variant 290 T335Y (antibody)
7.04 fold |  |  | trastuzumab Fc variant 294 S239D/A330Y/I332E/L235D (antibody)
28 fold |  |  | trastuzumab Fc variant 295 S239D/A330Y/I332E/V240I (antibody)

target: His-tagged V158 FcγRIIIa (human) (UniProt P08637); assay: SPR
Sequence (P08637 17-208 F176V): as the sequence (P08637 17-208) above, with F160V counted along it

Fold (Kd, over WT) | Substance
4 fold | alemtuzumab Fc variant 30 V264I/I332E (antibody)

target: extracellular region of human F158 FcγRIIIa, GST-tagged (human) (UniProt P08637); assay: SPR

Fold (Kd, over WT) | Kd | Substance
14 fold | 52 nM | alemtuzumab Fc variant 30 V264I/I332E (antibody)

target: His-tagged V158 FcγRIIIa (human) (UniProt P08637); assay: SPR, receptor immobilized, antibody flowed

Substance | Kd
alemtuzumab Fc variant 3 V264I (antibody) | 64 nM
alemtuzumab Fc variant 22 I332E (antibody) | 31 nM

More lines, now with the values ahead:

Kd | Substance
17 nM | alemtuzumab Fc variant 30 V264I/I332E (antibody)
52 nM | alemtuzumab Fc variant 35 S298A (antibody)
39 nM | alemtuzumab Fc variant 37 S298A/E333A/K334A (antibody)
